Results from patent US20260373262 (published 2026).

Biological target: T1, EPHB6 (human, UniProt O15197)
T1 chain: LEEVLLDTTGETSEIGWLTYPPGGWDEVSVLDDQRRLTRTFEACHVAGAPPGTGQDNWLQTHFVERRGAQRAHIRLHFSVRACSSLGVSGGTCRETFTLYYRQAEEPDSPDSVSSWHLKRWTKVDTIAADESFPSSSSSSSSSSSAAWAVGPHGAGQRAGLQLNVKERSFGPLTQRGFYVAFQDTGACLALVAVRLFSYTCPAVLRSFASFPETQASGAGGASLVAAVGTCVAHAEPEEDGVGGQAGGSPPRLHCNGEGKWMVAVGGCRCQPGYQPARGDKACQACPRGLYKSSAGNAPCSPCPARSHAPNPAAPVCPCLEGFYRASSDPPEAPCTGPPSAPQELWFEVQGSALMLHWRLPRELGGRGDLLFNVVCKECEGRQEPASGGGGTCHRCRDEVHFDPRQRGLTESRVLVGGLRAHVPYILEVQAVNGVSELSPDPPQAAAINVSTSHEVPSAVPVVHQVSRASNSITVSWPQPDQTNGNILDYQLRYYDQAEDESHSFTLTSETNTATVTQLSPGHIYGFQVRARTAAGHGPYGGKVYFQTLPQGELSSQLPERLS
Assay: FACS

B1: hLFTT-1 VH4/VL5 (antibody, V domains shown)
VH: QIQLVQSGSELKKPGASVKVSCKASGYTFTTYGMSWVRQAPGQGLKWMGWIYTYSGVPTYADDLTGRFVFSLDTSVSTAYLQISSLKAEDTATYYCARVRDGYYRYAMDYWGRGTLVTVSS
VL: DIQMTQSPSSLSVSVGDRVTITCKASQDINRYIAWYQQQPGKAPKLLIHFTSTLQSGVPSRFSGSGSGTDFTFTISSLQPEDIATYYCLQYDDLRTFGQGTKLEIK
EC50: > 300 µg/mL
